Source: patent US20090005253A1 (AVENTIS PHARMA S A, published 2009)

B1: fusion protein AD-Fe65 (GAL4 activation domain fused to amino acids 152 to 708 of Fe65) (other)
chain: MDKAELIPEPPKKKRKVELGTAANFNQSGNIADSSLSFTFTNSSNGPNLITTQTNSQALSQPIASSNVHDNFMNNEITASKIDDGNNSKPLSPGWTDQTAYNAFGITTGMFNTTTMDDVYNYLFDDEDTPPNPKKEIEFKAAGEAEEEEEDDDDEEEEEDLSSPPGLPEPLESVEAPPRPQALTDGPREHSKSASLLFGMRNSAASDEDSSWATLSQGSPSYGSPEDTDSFWNPNAFETDSDLPAGWMRVQDTSGTYYWHIPTGTTQWEPPGRASPSQGSSPQEESQLTWTGFAHGEGFEDGEFWKDEPSDEAPMELGLKEPEEGTLTFPAQSLSPEPLPQEEEKLPPRNTNPGIKCFAVRSLGWVEMTEEELAPGRSSVAVNNCIRQLSYHKNNLHDPMSGGWGEGKDLLLQLEDETLKLVEPQSQALLHAQPIISIRVWGVGRDSGRDFAYVARDKLTQMLKCHVFRCEAPAKNIATSLHEICSKIMAERRNARCLVNGLSLDHSKLVDVPFQVEFPAPKNELVQKFQVYYLGNVPVAKPVGVDVINGALESVLSSSSREQWTPSHVSVAPATLTILHQQTEAVLGECRVRFLSFLAVGRDVHTFAFIMAAGPASFCCHMFWCEPNAASLSEAVQAACMLRYQKCLDARSQASTSCLPAPPAESVARRVGWTVRRGVQSLWGSLKPKRLGAHTP
notes: also called pRB34
B2: activation domain (AD) of GAL4p expressed alone from pTAL20 (other, Saccharomyces cerevisiae, UniProt P04386 768-881, looked up)
chain: ANFNQSGNIADSSLSFTFTNSSNGPNLITTQTNSQALSQPIASSNVHDNFMNNEITASKIDDGNNSKPLSPGWTDQTAYNAFGITTGMFNTTTMDDVYNYLFDDEDTPPNPKKE
notes: Negative control partner

Columns and labels:
[1] = target: T1, DNA-binding domain (DBD) of GAL4p expressed alone from pDBT (Saccharomyces cerevisiae, UniProt P04386 1-147, limits assumed); assay: yeast two-hybrid control (pRB34+pDBT), URA3 reporter in strain Y187
T1 construct: Negative control partner
Procedure: (§1) The activity of the constructs is first verified (FIGS. 6A and 6F). […] Two clones of each of these transformants are cultured on minimum medium with and without uracil ((FIGS. 6A and 6F).
Firstly, the activity of the constructs was verified. […] Two clones cotransformed by each of these pairs of plasmids are selected. Their capacity to grow on minimum medium with and without uracil is studied.

[2] = target: T2, fusion protein DBD-mdm2 (GAL4 DBD fused to the entire Mdm2 human protein) (Saccharomyces cerevisiae; human, UniProt P04386 1-147; Q00987 1-491, limits assumed); assay: yeast two-hybrid control (pTAL20+pDBT-mdm2), URA3 reporter in strain Y187
T2 construct: also called pDBT-mdm2
Procedure: as §1

[3] = target: T1, DNA-binding domain (DBD) of GAL4p …; assay: reverse two-hybrid UI strain yRB49; growth not affected on medium with 1 mM 3-AT

Row | Binder | binding result [1] | binding result [2] | binding result [3]
1 | B1 | no binding |  | 
2 | B2 |  | no binding | no binding
